Assay results taken from publication PMC4036204, “The DDN Catalytic Motif Is Required for Metnase Functions in Non-homologous End Joining (NHEJ) Repair and Replication Restart*”.
Substitutions are numbered along the chain they refer to.

Assays:
Experiment in all cases: fluorescence polarization; FP: 50 mM HEPES pH 7.0, 150 mM NaCl, 10 nM probe, temperature not stated; EMSA: 50 mM HEPES-KOH pH 7.8, 50 mM NaCl, 0.2 ug poly(dI:dC), 0.2 ug/ul BSA, room temperature 15 min
[1] = target: T1, Metnase catalytic domain WT (UniProt Q53H47 446-684); conditions: protein: recombinant, tags: N-terminal His tag removed by thrombin
T1 sequence: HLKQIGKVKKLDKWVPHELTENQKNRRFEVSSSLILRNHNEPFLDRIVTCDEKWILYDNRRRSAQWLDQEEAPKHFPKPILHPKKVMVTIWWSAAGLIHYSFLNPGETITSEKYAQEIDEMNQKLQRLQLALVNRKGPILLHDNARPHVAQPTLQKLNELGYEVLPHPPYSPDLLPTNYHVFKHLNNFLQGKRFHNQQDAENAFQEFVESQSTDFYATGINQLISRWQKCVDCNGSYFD

[2] = target: T2, Metnase transposase domain WT (UniProt Q53H47 342-684); conditions: protein: recombinant, tags: His6-SUMO cleaved by Ulp1
T2 sequence: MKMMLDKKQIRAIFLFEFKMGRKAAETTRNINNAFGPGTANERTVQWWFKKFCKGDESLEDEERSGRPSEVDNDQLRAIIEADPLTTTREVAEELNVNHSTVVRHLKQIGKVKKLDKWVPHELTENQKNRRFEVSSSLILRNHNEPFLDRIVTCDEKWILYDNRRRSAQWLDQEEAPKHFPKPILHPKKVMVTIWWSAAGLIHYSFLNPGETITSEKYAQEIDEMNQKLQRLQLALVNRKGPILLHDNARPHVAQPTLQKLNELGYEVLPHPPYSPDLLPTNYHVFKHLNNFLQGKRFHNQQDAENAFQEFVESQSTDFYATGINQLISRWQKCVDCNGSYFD

[3] = target: T3, Metnase DNA-binding domain WT (UniProt Q53H47 342-453); conditions: protein: recombinant, tags: His6-SUMO cleaved by Ulp1
T3 sequence: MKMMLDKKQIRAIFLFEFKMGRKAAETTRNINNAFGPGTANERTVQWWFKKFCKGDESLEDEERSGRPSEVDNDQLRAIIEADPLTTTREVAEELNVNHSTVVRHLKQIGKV

[4] = target: T4, Metnase transposase domain N610D (UniProt Q53H47 342-684, N623D); conditions: protein: recombinant; tags: His6-SUMO cleaved by Ulp1; label: 5' rhodamine; single strand
T4 sequence: T2 sequence with N282D

[5] = target: T5, Metnase transposase domain N610E (UniProt Q53H47 342-684, N623E); conditions: protein: recombinant; tags: His6-SUMO cleaved by Ulp1; label: 5' rhodamine; single strand
T5 sequence: T2 sequence with N282E

Mos1 transposase D284N = target: T6, Mos1 transposase D284N (UniProt Q7JQ07 1-345, D284N); conditions: protein: recombinant; tags: His6-SUMO cleaved by Ulp1; label: 5' rhodamine; single strand
T6 sequence: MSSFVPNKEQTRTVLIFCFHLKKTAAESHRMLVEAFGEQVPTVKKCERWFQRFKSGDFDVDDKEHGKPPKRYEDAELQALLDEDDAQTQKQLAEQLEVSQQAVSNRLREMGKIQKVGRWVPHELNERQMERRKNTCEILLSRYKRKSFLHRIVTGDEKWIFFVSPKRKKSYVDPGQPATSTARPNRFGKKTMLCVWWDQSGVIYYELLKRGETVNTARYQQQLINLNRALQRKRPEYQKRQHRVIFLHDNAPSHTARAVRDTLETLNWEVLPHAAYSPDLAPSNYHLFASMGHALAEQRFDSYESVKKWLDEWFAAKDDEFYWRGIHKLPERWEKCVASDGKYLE

Mos1 transposase WT = target: T7, Mos1 transposase WT (UniProt Q7JQ07 1-345); conditions: protein: recombinant; tags: His6-SUMO cleaved by Ulp1; label: 5' rhodamine; single strand
T7 sequence: T6 sequence with N284D

[6] = label: 5' rhodamine on strand 1, blunt
[7] = label: 5' rhodamine, single strand

B1: 28-bp blunt TIR dsDNA (dsDNA)
DNA 1: AACCGCAATTACTTTTGCACCAACCTAA
DNA 2: TTAGGTTGGTGCAAAAGTAATTGCGGTT
modifications: 5' C6-amino linker on strand 1
In the case of B1, the Kd [1, 6] is reported as 4700 ± 800 nM, the Kd ([2]; chain copies: 2, label: 5' rhodamine on strand 1, blunt) is reported as 7.9 ± 1.9 nM and the Kd [3, 6] is reported as 3.2 ± 0.9 nM.

B2: 25/31-mer TIR partial duplex (dsDNA)
DNA 1: AACCGCAATTACTTTTGCACCAACC
DNA 2: TCAGTAGGTTGGTGCAAAAGTAATTGCGGTT
modifications: 5' C6-amino linker on strand 1
With B2 the Kd ([2]; chain copies: 2, label: 5' rhodamine on strand 1, 5' overhang 6 nt on strand 2) was 11.9 ± 2.5 nM.

For AACCGCAATTACTTTTGCACCAACC (ssDNA, 5' C6-amino linker) [25-nt TIR ssDNA], the Kd [1, 7] was 295 ± 47 nM, the Kd [4] was 3300 ± 1100 nM and the Kd [2, 7] was 277 ± 26 nM. For the same binder, the binding result [3, 7] was “no binding”, the Kd [5] was 3200 ± 400 nM and the Kd (Mos1 transposase D284N) was 33 ± 12 nM. It also gave a Kd (Mos1 transposase WT) of 33 ± 9 nM.
